As usually defined, the Kd is a measure of binding affinity in units of concentration. Low readings indicate tighter binding, high ones weaker binding.

The text below walks through data of paper PMC7081908, “Glycan Profiles of gp120 Protein Vaccines from Four Major HIV-1 Subtypes Produced from Different Host Cell Lines under Non-GMP or GMP Conditions” (Journal of Virology, 2020).

This assay has as its target IgG-CD4 protein (fusion protein of human CD4 domains 1 and 2 with human IgG1 Fc at the C terminus) (human). The assay can be described thus: BLI; Octet QKe; IgG-CD4 loaded onto protein G sensors at 20 ug/ml in ForteBio kinetics buffer; serial dilutions of gp120 (600 nM to 0.4 nM) in solution; Kd = koff/kon, 1:1 fitting model; two GMP lots of each gp120. The following applies: both partners purified. (In general: Biolayer interferometry detects binding as a change in optical thickness at a sensor tip.)

“And” between values parts separate entries of the source, which are not always exact repeats. Identical values can stand only once.

B1: GMP-grade gp120 protein, HIV-1 clade A isolate 92UG037.8 (natural protein)
chain: not shown
As for B1, the dissociation constant Kd was 5.48 nM and 3.62 nM.
